These results are taken from IntAct's records for PubMed 31025394.

The labels stand for the following.
B1: Myosin-binding protein C, slow-type (Homo sapiens), Q00872-4 (parent)
chain: MPEPTKKEENEVPAPAPPPEEPSKEKEAGTTPAKDEEEVSPPSALPPGLGSRALERKDSDWTLVETPPGEEQAKQNANSQLSILFIEKPQGGTVKVGEDITFIAKVKAEDLLRKPTIKWFKGKWMDLASKAGKHLQLKETFERHSRVYTFEMQIIKAKDNFAGNYRCEVTYKDKFDSCSFDLEVHESTGTTPNIDIRSAFKRSGEGQEDAGELDFSGLLKRREVKQQEEEPQVDVWELLKNAKPSEYEKIAFQYGITDLRGMLKRLKRMRREEKKSAAFAKILDPAYQVDKGGRVRFVVELADPKLEVKWYKNGQEIRPSTKYIFEHKGCQRILFINNCQMTDDSEYYVTAGDEKCSTELFVREPPIMVTKQLEDTTAYCGERVELECEVSEDDANVKWFKNGEEIIPGPKSRYRIRVEGKKHILIIEGATKADAAEYSVMTTGGQSSAKLSVDLKPLKILTPLTDQTVNLGKEICLKCEISENIPGKWTKNGLPVQESDRLKVVHKGRIHKLVIANALTEDEGDYVFAPDAYNVTLPAKVHVIDPPKIILDGLDADNTVTVIAGNKLRLEIPISGEPPPKAMWSRGDKAIMEGSGRIRTESYPDSSTLVIDIAERDDSGVYHINLKNEAGEAHASIKVKVVDFPDPPVAPTVTEVGDDWCIMNWEPPAYDGGSPILGYFIERKKKQSSRWMRLNFDLCKETTFEPKKMIEGVAYEVRIFAVNAIGISKPSMPSRPFVPLAVTSPPTLLTVDSVTDTTVTMRWRPPDHIGAAGLDGYVLEYCFEGTEDWIVANKDLIDKTKFTITGLPTDAKIFVRVKAVNAAGASEPKYYSQPILVKEIIEPPKIRIPRHLKQTYIRRVGEAVNLVIPFQGKPRPELTWKKDGAEIDKNQINIRNSETDTIIFIRKAERSHSGKYDLQVKVDKFVETASIDIQIIDRPGPPQIVKIEDVWGENVALTWTPPKDDGNAAITGYTIQKADKKSMEWFTVIEHYHRTSATITELVIGNEYYFRVFSENMCGLSEDATMTKESAVIARDGKIYKNPVYEDFDFSEAPMFTQPLVNTYAIAGYNATLNCSVRGNPKPKITWMKNKVAIVDDPRYRMFSNQGVCTLEIRKPSPYDGGTYCCKAVNDLGTVEIECKLEVKVIYQGVNTPGQPVFLEGQQQSLHNKDF

In the test “acts_rabit ACTA1, P68135” the parent is B1. As to conditions: with acts_rabit ACTA1, P68135.
Test [1] covers variants of B1. As to conditions: with myh11_rabit MYH11, P35748.
myh11_rabit MYH11, P35748, sequence (P35748 whole entry): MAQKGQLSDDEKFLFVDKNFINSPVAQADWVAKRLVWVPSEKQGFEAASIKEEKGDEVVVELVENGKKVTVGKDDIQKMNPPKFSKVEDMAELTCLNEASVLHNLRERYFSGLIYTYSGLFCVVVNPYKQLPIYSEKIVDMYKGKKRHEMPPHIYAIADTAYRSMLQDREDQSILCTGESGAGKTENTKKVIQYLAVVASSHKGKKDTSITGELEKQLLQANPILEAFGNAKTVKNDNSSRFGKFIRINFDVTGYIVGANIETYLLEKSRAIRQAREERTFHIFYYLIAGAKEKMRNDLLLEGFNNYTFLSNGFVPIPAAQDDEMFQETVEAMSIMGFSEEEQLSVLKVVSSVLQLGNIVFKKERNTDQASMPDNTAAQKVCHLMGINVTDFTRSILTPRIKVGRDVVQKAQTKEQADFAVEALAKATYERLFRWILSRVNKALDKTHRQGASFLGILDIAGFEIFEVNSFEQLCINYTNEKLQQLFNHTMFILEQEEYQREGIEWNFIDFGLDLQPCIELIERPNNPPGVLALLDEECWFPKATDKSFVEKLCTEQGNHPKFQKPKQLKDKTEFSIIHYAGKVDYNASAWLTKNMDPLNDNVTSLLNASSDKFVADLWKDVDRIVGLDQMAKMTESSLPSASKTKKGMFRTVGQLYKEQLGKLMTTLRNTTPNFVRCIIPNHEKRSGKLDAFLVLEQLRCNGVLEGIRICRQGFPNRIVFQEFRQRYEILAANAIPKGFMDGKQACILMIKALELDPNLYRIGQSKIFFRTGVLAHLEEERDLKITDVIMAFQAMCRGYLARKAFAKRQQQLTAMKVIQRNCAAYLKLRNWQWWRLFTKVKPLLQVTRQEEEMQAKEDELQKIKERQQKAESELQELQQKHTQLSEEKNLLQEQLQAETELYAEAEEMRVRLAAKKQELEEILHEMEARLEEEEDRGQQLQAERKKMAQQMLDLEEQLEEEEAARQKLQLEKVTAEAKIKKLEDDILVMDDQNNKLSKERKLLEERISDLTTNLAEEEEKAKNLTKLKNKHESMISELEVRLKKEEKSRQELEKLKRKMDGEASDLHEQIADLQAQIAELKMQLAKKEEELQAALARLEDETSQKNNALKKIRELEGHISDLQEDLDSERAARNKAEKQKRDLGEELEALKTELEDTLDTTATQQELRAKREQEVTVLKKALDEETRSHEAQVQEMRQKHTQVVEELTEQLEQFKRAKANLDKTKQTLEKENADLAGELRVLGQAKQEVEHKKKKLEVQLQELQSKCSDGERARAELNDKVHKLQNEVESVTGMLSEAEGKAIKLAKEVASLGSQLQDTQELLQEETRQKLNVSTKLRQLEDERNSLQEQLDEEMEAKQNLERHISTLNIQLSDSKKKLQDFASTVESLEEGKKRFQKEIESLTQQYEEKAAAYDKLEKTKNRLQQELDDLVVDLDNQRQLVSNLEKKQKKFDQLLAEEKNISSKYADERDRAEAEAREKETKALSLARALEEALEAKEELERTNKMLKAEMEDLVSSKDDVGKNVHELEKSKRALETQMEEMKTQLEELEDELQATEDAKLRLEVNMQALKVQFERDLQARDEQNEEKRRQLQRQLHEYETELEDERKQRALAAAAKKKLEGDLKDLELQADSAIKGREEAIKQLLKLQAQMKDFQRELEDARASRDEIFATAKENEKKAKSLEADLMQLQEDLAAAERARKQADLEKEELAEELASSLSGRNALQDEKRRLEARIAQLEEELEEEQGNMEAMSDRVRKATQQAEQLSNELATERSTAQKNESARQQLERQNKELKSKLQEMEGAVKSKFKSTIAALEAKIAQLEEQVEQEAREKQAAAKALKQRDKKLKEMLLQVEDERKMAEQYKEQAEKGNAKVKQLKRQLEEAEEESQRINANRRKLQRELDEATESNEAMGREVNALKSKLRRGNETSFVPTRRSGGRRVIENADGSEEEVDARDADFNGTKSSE

As for E248K, the “effect of a mutation on the interaction” value with acts_rabit ACTA1, P68135 is “increasing interaction strength”; in test [1], “increasing interaction strength”.

In the case of Y247H, the “effect of a mutation on the interaction” value with acts_rabit ACTA1, P68135 is “increasing interaction strength”; in test [1] it was “increasing interaction strength”.
